In the assay the target is T1, 14-3-3ε full length (14-3-3ε FL), recombinant, P62258.
T1 chain: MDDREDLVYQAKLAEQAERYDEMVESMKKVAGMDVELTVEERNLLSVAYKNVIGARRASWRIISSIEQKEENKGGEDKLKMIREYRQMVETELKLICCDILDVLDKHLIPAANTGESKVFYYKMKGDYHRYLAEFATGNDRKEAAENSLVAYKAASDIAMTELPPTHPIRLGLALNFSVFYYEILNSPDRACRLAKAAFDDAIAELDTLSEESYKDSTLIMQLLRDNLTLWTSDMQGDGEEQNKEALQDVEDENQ
Briefly: AUC + other: dynamic light scattering; sedimentation velocity, 20 °C, 45,000 r.p.m., 37 μM, 5 mM sodium phosphate pH 6.3; DLS at 0.1 mg/mL, 25 °C, same buffer. The conditions noted are these: remark: other sources report otherwise.

B1: 14-3-3ε full length (14-3-3ε FL), recombinant, P62258 1-255 (natural protein)
chain: MDDREDLVYQAKLAEQAERYDEMVESMKKVAGMDVELTVEERNLLSVAYKNVIGARRASWRIISSIEQKEENKGGEDKLKMIREYRQMVETELKLICCDILDVLDKHLIPAANTGESKVFYYKMKGDYHRYLAEFATGNDRKEAAENSLVAYKAASDIAMTELPPTHPIRLGLALNFSVFYYEILNSPDRACRLAKAAFDDAIAELDTLSEESYKDSTLIMQLLRDNLTLWTSDMQGDGEEQNKEALQDVEDENQ
Take B1: the stoichiometry N was found to be 2.
